{
  "source": "paper PMC8225996",
  "about": "(Frontiers in Cardiovascular Medicine, 2021)",
  "biological_target": "T1, Angiotensin converting enzyme 2 (mouse (endogenous in primary brain …, UniProt Q8R0I0 18-805))",
  "T1 construct": "Angiotensin converting enzyme 2 (ACE2), type I membrane glycoprotein; endogenous in mouse brain microvascular endothelial cells; also called ACE2; ACE2 receptor; source: endogenous, mouse primary brain microvascular endothelial cells (C57BL/6 control; db/db diabetic), in lysate",
  "T1 sequence (Q8R0I0 18-805)": "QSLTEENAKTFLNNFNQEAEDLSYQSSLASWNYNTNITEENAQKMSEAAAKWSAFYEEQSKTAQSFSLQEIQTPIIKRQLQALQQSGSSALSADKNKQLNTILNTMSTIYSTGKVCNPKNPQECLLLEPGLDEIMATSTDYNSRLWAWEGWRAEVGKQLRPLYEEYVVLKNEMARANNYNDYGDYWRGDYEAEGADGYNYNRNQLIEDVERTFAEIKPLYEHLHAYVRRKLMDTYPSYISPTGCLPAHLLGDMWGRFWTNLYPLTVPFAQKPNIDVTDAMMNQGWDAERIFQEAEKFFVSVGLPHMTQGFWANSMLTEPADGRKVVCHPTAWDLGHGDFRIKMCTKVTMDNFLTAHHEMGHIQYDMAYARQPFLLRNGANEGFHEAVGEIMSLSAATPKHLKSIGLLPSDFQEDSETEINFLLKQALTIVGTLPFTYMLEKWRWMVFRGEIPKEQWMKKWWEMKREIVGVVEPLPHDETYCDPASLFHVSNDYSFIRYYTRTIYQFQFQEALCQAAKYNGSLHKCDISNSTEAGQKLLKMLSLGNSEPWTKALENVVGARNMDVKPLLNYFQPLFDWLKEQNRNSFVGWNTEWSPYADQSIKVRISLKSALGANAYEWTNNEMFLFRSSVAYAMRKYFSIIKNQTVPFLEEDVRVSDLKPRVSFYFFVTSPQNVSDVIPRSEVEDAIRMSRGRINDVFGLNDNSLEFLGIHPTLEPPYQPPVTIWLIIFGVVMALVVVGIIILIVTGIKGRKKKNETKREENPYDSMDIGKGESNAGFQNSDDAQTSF",
  "test": "co-IP; ACE2 antibody (2 ug) with 150 ug lysate of control endothelial cells treated with Spike; Catch and Release spin columns, 18 h at 4 C; blots probed for Rab5a",
  "settings": "partners not purified",
  "data": [
    {"binder": "Rab5a (natural protein, UniProt Q9CQD1 1-215, looked up, Rab5a, Rab GTPase of the endolysosomal trafficking pathway; endogenous in mouse brain microvascular endothelial cells; source: endogenous, mouse primary brain microvascular endothelial cells (C57BL/6 control; db/db diabetic), in lysate) MANRGATRPNGPNTGNKICQFKLVLLGESAVGKSSLVLRFVKGQFHEFQESTIGAAFLTQTVCLDDTTVKFEIWDTAGQERYHSLAPMYYRGAQAAIVVYDITNEESFARAKNWVKELQRQASPNIVIALSGNKADLANKRAVDFQEAQSYADDNSLLFMETSAKTSMNVNEIFMAIAKKLPKNEPQNPGANSARGRGVDLTEPAQPARSQCCSN", "values": [
      {"measurement": "fold change of association with ACE2, Spike-treated against untreated cells", "value": 2, "unit": "fold"}
    ]}
  ]
}
